Assay results: PMC12743511, “HSD17β11 regulates PLIN5-ATGL mediated lipolysis, but not hepatic lipid metabolism in mice” (Journal of Lipid Research, 2025)

Biological target: T1, PLIN5-CFP (perilipin 5 fused to CFP) (UniProt Q00G26 1-463)
T1 construct: perilipin 5 (PLIN5); FRET donor; source: transiently transfected (Lipofectamine 3000), in live cells
T1 sequence (looked up): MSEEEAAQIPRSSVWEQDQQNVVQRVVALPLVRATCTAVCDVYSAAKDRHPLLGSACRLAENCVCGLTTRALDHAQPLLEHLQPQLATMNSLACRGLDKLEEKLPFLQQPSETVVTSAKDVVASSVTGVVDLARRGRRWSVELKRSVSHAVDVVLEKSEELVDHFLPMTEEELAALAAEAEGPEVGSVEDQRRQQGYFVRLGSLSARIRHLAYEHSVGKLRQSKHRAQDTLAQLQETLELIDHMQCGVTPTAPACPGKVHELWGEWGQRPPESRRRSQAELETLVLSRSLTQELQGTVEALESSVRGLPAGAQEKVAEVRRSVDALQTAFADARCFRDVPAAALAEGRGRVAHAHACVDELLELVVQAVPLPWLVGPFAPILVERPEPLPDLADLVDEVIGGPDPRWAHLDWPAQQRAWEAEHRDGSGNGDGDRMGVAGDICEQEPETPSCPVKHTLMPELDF
Assay: FRET or BRET; FLIM-FRET with phasor analysis in live transfected cells, CFP donor and YFP acceptor, 37°C, 5% CO2; basal and forskolin (PKA) stimulated; ATGL-CFP with PLIN5-YFP in WT and HSD^KO cells; read-out FRET ratio (pixels with FRET / pixels without)
Conditions: partners not purified

B1: HSD17β11-YFP (hydroxysteroid 17β dehydrogenase 11 fused to YFP) (natural protein, UniProt Q8NBQ5 1-300, looked up)
chain: MKFLLDILLLLPLLIVCSLESFVKLFIPKRRKSVTGEIVLITGAGHGIGRLTAYEFAKLKSKLVLWDINKHGLEETAAKCKGLGAKVHTFVVDCSNREDIYSSAKKVKAEIGDVSILVNNAGVVYTSDLFATQDPQIEKTFEVNVLAHFWTTKAFLPAMTKNNHGHIVTVASAAGHVSVPFLLAYCSSKFAAVGFHKTLTDELAALQITGVKTTCLCPNFVNTGFIKNPSTSLGPTLEPEEVVNRLMHGILTEQKMIFIPSSIAFLTTLERILPERFLAVLKRKISVKFDAVIGYKMKAQ
notes: hydroxysteroid 17β dehydrogenase 11 (HSD17β11), wild type; FRET acceptor; also called HSD^WT-YFP; source: transiently transfected (Lipofectamine 3000), in live cells
- fold increase in FRET ratio over donor alone: 2.5 fold
